For six molecules, binding signal, binding result and Kd results are on record in PMC11014265.

What is called Kd is the equilibrium constant for the complex coming apart.

What all share (assay): fluorescence anisotropy
In general terms: In fluorescence polarisation assays a small probe gives low polarisation when free and higher when bound to something large.

The target of data set [1] is T1, HrpA75-758 (no APHB) (Escherichia coli, UniProt P43329 75-758).
T1 sequence: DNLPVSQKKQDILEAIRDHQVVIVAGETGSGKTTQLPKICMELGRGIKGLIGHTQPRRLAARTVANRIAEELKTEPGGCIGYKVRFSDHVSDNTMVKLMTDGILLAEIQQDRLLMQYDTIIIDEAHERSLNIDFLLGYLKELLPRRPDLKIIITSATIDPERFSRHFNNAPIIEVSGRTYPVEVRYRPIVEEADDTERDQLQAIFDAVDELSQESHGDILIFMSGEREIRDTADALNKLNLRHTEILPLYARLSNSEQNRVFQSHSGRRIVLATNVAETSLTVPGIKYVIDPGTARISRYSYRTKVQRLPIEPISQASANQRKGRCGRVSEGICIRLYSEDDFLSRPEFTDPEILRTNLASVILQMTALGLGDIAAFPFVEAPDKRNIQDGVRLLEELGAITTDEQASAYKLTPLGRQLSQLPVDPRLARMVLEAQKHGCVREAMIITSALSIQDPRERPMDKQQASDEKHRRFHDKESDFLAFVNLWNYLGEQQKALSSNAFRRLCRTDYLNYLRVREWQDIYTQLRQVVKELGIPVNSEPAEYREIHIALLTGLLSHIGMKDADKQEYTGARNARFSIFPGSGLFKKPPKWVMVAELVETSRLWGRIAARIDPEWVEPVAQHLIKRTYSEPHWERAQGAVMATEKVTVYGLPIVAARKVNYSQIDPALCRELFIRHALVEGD

In data set [2] the target is T2, HrpA75-1300 (no APHB) (Escherichia coli, UniProt P43329 75-1300).
T2 sequence: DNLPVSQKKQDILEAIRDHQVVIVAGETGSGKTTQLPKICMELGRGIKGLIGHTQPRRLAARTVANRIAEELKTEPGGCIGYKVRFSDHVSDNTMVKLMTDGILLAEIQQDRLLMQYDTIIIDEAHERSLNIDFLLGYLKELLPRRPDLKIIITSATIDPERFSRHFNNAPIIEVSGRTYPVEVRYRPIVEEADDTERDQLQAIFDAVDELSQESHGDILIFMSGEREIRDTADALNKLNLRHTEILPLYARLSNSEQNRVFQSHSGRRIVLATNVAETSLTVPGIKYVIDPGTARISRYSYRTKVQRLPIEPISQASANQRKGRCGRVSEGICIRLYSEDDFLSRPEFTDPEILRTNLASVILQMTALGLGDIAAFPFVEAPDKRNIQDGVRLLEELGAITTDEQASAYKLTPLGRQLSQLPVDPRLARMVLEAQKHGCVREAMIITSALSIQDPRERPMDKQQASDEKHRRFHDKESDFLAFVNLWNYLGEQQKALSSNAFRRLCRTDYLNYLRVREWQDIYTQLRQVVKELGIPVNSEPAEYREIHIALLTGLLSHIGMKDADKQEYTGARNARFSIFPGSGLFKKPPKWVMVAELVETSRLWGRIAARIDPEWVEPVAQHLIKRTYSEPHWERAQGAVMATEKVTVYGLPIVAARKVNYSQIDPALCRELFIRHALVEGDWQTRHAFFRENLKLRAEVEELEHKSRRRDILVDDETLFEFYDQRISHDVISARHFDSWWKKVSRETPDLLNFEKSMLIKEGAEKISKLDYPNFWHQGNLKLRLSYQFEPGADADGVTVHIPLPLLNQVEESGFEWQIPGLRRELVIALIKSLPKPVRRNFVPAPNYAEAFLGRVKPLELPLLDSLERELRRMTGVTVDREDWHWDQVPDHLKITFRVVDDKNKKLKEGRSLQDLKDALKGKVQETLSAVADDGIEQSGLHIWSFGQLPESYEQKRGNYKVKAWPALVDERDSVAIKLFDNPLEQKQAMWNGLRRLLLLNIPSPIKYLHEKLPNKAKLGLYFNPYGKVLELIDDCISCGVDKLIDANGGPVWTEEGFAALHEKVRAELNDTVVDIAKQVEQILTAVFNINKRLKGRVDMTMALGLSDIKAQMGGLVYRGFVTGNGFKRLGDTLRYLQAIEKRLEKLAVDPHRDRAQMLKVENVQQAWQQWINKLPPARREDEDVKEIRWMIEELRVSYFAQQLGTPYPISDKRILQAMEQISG

Data set [3] addresses T3, HrpA1-1300 E49A (Escherichia coli, UniProt P43329 1-1300, E49A).
T3 sequence: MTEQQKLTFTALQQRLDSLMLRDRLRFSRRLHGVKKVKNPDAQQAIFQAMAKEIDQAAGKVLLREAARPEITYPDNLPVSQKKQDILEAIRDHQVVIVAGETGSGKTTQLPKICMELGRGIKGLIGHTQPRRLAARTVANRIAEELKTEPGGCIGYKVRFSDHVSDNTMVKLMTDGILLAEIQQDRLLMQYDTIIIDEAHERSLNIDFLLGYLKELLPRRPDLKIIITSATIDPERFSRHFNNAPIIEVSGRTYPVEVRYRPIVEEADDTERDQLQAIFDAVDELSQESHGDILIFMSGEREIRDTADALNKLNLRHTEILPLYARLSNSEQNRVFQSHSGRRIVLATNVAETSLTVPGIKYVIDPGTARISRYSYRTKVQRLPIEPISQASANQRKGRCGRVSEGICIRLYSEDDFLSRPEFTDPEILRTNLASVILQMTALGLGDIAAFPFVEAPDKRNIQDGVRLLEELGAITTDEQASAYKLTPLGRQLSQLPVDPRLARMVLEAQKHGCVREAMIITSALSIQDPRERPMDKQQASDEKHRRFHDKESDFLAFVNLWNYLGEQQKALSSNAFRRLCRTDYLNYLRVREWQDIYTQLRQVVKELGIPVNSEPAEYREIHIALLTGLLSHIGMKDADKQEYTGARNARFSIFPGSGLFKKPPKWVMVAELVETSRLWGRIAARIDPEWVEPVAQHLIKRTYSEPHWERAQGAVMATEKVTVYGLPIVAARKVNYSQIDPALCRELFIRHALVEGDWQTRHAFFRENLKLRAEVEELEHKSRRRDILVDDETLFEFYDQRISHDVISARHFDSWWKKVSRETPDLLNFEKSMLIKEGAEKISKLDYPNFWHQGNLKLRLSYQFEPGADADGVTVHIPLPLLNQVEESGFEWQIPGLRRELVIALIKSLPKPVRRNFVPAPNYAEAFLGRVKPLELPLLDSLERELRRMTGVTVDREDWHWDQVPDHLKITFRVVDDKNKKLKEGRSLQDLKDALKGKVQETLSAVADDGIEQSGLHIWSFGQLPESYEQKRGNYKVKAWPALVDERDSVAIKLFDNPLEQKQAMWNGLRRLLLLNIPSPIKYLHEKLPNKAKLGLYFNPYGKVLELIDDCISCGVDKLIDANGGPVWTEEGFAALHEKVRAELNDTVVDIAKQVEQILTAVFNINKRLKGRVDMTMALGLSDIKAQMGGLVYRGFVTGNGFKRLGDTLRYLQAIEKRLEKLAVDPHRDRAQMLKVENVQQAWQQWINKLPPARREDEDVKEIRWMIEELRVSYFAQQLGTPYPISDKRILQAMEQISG

For data set [4], the target named is T2, HrpA75-1300 (no APHB). This is another data set of the same source.
Data set [5] deals with T4, HrpA1-1300 (full-length) (Escherichia coli, UniProt P43329 1-1300).
T4 sequence: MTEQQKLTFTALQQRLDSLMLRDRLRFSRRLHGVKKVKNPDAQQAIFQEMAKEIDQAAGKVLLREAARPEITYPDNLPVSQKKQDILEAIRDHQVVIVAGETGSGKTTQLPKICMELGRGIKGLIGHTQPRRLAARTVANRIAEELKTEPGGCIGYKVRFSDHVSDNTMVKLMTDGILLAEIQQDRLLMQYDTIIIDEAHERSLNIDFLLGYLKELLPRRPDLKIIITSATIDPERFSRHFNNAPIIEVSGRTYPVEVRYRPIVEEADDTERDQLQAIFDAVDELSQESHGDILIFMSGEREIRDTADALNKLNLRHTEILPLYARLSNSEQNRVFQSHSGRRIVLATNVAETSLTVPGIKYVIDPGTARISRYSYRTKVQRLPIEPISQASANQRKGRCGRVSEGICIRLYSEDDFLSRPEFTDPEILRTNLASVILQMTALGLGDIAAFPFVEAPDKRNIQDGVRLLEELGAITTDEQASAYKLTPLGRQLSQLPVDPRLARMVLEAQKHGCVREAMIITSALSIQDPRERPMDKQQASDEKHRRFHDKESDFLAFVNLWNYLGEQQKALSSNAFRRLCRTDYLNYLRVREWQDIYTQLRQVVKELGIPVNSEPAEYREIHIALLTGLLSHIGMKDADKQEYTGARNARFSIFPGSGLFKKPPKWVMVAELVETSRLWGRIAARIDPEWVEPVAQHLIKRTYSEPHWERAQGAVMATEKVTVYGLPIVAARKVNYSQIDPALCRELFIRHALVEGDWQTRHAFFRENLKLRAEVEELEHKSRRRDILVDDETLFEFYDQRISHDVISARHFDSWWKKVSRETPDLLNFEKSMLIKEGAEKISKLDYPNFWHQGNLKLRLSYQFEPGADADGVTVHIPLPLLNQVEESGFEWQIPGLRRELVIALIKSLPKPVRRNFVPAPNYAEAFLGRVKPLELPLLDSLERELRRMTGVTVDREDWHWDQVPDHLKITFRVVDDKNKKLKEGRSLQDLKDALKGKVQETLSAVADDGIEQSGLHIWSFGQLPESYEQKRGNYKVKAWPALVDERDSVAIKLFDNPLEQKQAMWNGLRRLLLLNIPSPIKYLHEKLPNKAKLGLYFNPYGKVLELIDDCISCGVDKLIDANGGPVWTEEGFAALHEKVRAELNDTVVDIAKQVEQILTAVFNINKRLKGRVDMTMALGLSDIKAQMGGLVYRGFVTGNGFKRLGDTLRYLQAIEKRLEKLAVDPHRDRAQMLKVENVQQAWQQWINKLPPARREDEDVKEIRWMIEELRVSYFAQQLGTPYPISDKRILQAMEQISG

In data set [6] the target is T2, HrpA75-1300 (no APHB). This is another data set of the same source.
Data set [7] addresses T1, HrpA75-758 (no APHB). The source holds these as a separate data set.
Data set [8] addresses T2, HrpA75-1300 (no APHB). This is another data set of the same source.
The target in data set [9] is T2, HrpA75-1300 (no APHB). This is another data set of the same source.

Like-named read-outs stand apart in the source and are kept apart here.

B1: R-G-rich (ssRNA)
RNA: GUGUGUGUGUGU
B1: the binding signal in data set [1] was above 3 fold reduction; in data set [2], above 9 fold reduction.

B2: D-C12 (ssDNA)
DNA: CCCCCCCCCCCC
As for B2, the binding result was “binds” in data set [3] and “no binding” in data set [4].

B3: D-T12 (ssDNA)
DNA: TTTTTTTTTTTT
Consider B3, for which the affinity in data set [5], expressed as Kd, was 307 nM. That is a sub-micromolar value.

B4: R-A12 (ssRNA)
RNA: AAAAAAAAAAAA
B4: the binding signal in data set [6] and in [1] was above 3 fold reduction in each case.

B5: R-U12 (ssRNA)
RNA: UUUUUUUUUUUU
Consider B5, for which the binding signal in [7] was above 3 fold reduction; in [8] it was above 2 fold reduction.

B6: R-C12 (ssRNA)
RNA: CCCCCCCCCCCC
Take B6: the binding signal in data set [7] was above 3 fold reduction; in [9] it was above 9 fold reduction.
